Patent US20140178935A1 (AVEO PHARMACEUTICALS, published 2014)
Numbering of substitutions follows the chain as printed.

B1: anti-hHGF monoclonal antibody 1D3 (antibody, mouse IgG1, kappa, V domains shown)
VH: EVQLVESGGGLVQPGGSLKLSCAASGFTFSDYYMSWVRQTPEKRLEWVAYISSGGGSTYYPDSVKGRFTISRDNAKNTLYLQMSSLKSEDTAIYYCVRQGDGYYGDYAMDYWGQGTSVIVSS
VL: DIQMTQSPASLSVSVGETVTITCRTSENIYSNLAWYQQKQGKSPQLLIYAATNLADGVPSRFSGSGSGTQFSLRINSLQSEDFGRYYCQHFWGTPYTFGGGTKLEIKR
notes: Murine IgG1 kappa from hybridoma
B2: anti-hHGF monoclonal antibody 1F3 (antibody, mouse IgG1, kappa, V domains shown)
VH: B1 VH with P14S, D31N, Y33F, I93M, I119T
VL: B1 VL with T25A, I48V, A50D, N53H, A55P, R74K, R85S, K103R
notes: as for B1
B3: Kappa Chimeric 2B8 / Heavy Hu2B8_Hv1-f.1 (antibody, human IgG1, kappa, V domains shown)
VH: EVQLVQSGAEVKKPGATVKISCKVSGYTFTTYWMHWVQQAPGKGLEWMGEINPTNGHTNYNEKFQGRVTITADTSTDTAYMELSSLRSEDTAVYYCATNYVGSIFDYWGQGTLVTVSS
VL: NIVMTQSPKSMSMSVGERVTLSCKASENVVSYVSWYQQKPAQSPKLLIYGASNRNTGVPDRFTGSGSATDFTLTISSVRAEDLADYHCGQSYNYPYTFGGGTRLEIKR
notes: also called Hu2B8 Hv1-f.1 + IgG1 Constant heavy chain with Chimeric 2B8 Kappa light chain
B4: Kappa Hu2B8_Kv3-15.1 / Heavy Hu2B8_Hv1-f.1 (antibody, human IgG1, kappa, V domains shown)
VH: B3 VH
VL: EIVMTQSPATLSVSPGERATLSCKASENVVSYVSWYQQKPGQAPRLLIYGASNRNTGIPARFSGSGSGTEFTLTISSLQSEDFAVYYCGQSYNYPYTFGQGTKLEIKR
notes: also called Hu2B8 Hv1-f.1 + IgG1 Constant heavy chain with Hu2B8 Kv3-15.1 + Kappa Constant light chain
B5: Kappa Hu2B8_Kv1-39.1 / Heavy Hu2B8_Hv5-a.1 (antibody, human IgG1, kappa, V domains shown)
VH: EVQLVQSGAEVKKPGESLRISCKGSGYSFTTYWMHWVRQMPGKGLEWMGEINPTNGHTNYNPSFQGHVTISADKSISTAYLQWSSLKASDTAMYYCARNYVGSIFDYWGQGTLVTVSS
VL: DIQMTQSPSSLSASVGDRVTITCKASENVVSYVSWYQQKPGKAPKLLIYGASNRNTGVPSRFSGSGSGTDFTLTISSLQPEDFATYYCGQSYNYPYTFGQGTKLEIKR
notes: also called Hu2B8 Hv5-a.1 + IgG1 Constant heavy chain with Hu2B8 Kv1-39.1 + Kappa Constant light chain
B6: Kappa Hu2B8_Kv1-39.1 / Heavy Hu2B8_Hv1-f.1 (antibody, human IgG1, kappa, V domains shown)
VH: B3 VH
VL: B5 VL
notes: also called Hu2B8 Hv1-f.1 + IgG1 Constant heavy chain with Hu2B8 Kv1-39.1 + Kappa Constant light chain
B7: Kappa Hu2B8_Kv1-39.1 / Heavy Chimeric 2B8 (antibody, human IgG1, kappa, V domains shown)
VH: QVQLQQPGAELVKPGTSVKLSCKASGYTFTTYWMHWVNQRPGQGLEWIGEINPTNGHTNYNEKFKSKATLTVDKSSSTAYMQLSSLTSEDSAVYYCARNYVGSIFDYWGQGTTLTVSS
VL: B5 VL
notes: also called Chimeric 2B8 IgG1 heavy chain with Hu2B8 Kv1-39.1 + Kappa Constant light chain
B8: Kappa Chimeric 2B8 / Heavy Hu2B8_Hv5-a.1 (antibody, human IgG1, kappa, V domains shown)
VH: B5 VH
VL: B3 VL
notes: also called Hu2B8 Hv5-a.1 + IgG1 Constant heavy chain with Chimeric 2B8 Kappa light chain
B9: Kappa Hu2B8_Kv3-15.1 / Heavy Hu2B8_Hv5-a.1 (antibody, human IgG1, kappa, V domains shown)
VH: B5 VH
VL: B4 VL
notes: also called Hu2B8 Hv5-a.1 + IgG1 Constant heavy chain with Hu2B8 Kv3-15.1 + Kappa Constant light chain
B10: chimeric 2B8 (mouse variable regions with human IgG1 (G1m(17,1)) and Kappa (Km(3)) constant regions) (antibody)
heavy: not shown
light: NIVMTQSPKSMSMSVGERVTLSCKASENVVSYVSWYQQKPAQSPKLLIYGASNRNTGVPDRFTGSGSATDFTLTISSVRAEDLADYHCGQSYNYPYTFGGGTRLEIKRTVAAPSVFIFPPSDEQLKSGTASVVCLLNNFYPREAKVQWKVDNALQSGNSQESVTEQDSKDSTYSLSSTLTLSKADYEKHKVYACEVTHQGLSSPVTKSFNRGEC
notes: also called Chimeric 2B8 IgG1; Chimeric 2B8 Kappa (Km(3))
B11: Kappa Hu2B8_Kv3-15.1 / Heavy Chimeric 2B8 (antibody, human IgG1, kappa, V domains shown)
VH: B7 VH
VL: B4 VL
notes: also called Chimeric 2B8 IgG1 heavy chain with Hu2B8 Kv3-15.1 + Kappa Constant light chain

target: T1, recombinant human HGF (R&D Systems, Catalog No. 294-HGN-025) (human, UniProt P14210 32-728); experiment: SPR, antibody captured by anti-mouse Ig, HGF injected, 25 C
T1 construct: Mature HGF is a disulfide-linked heterodimer of alpha and beta chain cut from one precursor; also called rhHGF (R&D Systems); rhHGF
Procedure: (§1) Rabbit anti-mouse immunoglobulins (BIAcore, Catalog No. BR-1005-14) were immobilized on carboxymethylated dextran CM5 sensor chips (BIAcore, Catalog No. BR-1006-68) by amine coupling (BIAcore, Catalog No. BR-1000-50) using a standard coupling protocol according to manufacturer's instructions. The analyses were performed at 25° C. using PBS (GIBCO, Catalog No. 14040-133) containing 0.05% surfactant P20 (BIAcore, Catalog No. BR-1000-54), 2 mg/mL BSA (EMD, Catalog No. 2930), and 10 mg/mL CM-Dextran Sodium salt (Fluka, Catalog No. 86524) as running buffer.
(§2) The antibodies were captured in an individual flow cell at a flow rate of 10 μL/min. Injection time was variable for each antibody to yield approximately 20 RU of antibody captured for each cycle. […] The dissociation phase was monitored for 15 or 90 minutes, depending on concentration. The surface then was regenerated with 10 mM Glycine-HCl, pH 1.7 (BIAcore, Catalog No. BR-1003-54) injected for 3 minutes at a flow rate of 60 μL/min before another cycle was initiated.
Kinetic parameters were determined using the kinetic function of the BIAevalutation software with reference subtraction.

T1 sequence (P14210 32-728 limits assumed): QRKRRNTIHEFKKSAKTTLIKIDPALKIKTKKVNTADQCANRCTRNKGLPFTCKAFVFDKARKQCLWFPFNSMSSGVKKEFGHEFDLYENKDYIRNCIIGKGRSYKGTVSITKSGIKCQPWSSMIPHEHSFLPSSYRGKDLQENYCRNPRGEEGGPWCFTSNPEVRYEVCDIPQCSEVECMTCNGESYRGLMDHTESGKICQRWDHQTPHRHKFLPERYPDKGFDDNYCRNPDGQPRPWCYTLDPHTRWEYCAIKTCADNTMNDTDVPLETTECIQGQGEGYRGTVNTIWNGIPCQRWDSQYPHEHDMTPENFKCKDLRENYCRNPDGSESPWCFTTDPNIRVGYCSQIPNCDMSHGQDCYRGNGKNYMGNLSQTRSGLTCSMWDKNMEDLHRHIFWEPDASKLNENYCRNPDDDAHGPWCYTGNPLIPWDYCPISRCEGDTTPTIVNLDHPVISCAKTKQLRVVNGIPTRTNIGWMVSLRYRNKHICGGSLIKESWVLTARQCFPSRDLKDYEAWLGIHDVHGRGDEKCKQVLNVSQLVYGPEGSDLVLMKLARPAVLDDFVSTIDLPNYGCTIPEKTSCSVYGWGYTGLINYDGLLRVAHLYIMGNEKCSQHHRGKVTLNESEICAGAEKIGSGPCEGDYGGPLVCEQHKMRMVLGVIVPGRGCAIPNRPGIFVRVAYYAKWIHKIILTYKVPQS

**Q.** Which Kd does the source give for B1 here?
**A.** The Kd was 0.0542 nM.

**Q.** And the koff?
**A.** Its koff is 8.2e-05 s⁻¹.

**Q.** And the kon?
**A.** Its kon is 1.7e+06 M⁻¹ s⁻¹.

**Q.** Which results are given for B2?
**A.** Kd: 0.0181 nM; koff: 2.6e-05 s⁻¹; kon: 1.5e+06 M⁻¹ s⁻¹

target: T1, recombinant human HGF (R&D Systems, …); experiment: cell-based or functional assay

**Q.** For B1, which “IC50, neutralization of HGF stimulated BrdU incorporation in 4 MBr-5 cells” value is on record?
**A.** The value was 4.99 nM.

**Q.** B2 was tested. Which “IC50, neutralization of HGF stimulated BrdU incorporation in 4 MBr-5 cells” value did it give?
**A.** Its value is 1.94 nM.

target: T1, recombinant human HGF (R&D Systems, …); experiment: SPR (BIAcore T100), antibody captured on mouse anti-human immunoglobulin CM4 chip, HGF 1.88, 3.75 and 7.5 nM injected, 25 C
Procedure: as §1, with “Antigen-binding affinity and kinetics of interaction were assessed by surface plasmon resonance technology using a BIAcore T100 instrument. Mouse anti-human” for “Rabbit anti-mouse”, “(Jackson ImmunoResearch Labs, 209-005-098)” for “(BIAcore, Catalog No. BR-1005-14)”, “CM4” for “CM5”, “BR-1005-34)” for “BR-1006-68)”, “recommendations.” for “instructions.”, “2930)” for “2930),”
as §2, with “on” for “in an”, “2.0” for “1.7”, “BR-1003-55)” for “BR-1003-54)”, “initiated. […] Determination of kinetic parameters was achieved using the kinetic function of the BIAevalutation software with reference subtraction.” for “initiated.”

**Q.** What does the source list for B3?
**A.** koff: 0.0016 s⁻¹; kon: 2.4e+06 M⁻¹ s⁻¹

**Q.** How did the koff turn out when B4 was run?
**A.** The koff was 0.0037 s⁻¹.

**Q.** And the kon?
**A.** The kon was 7.8e+06 M⁻¹ s⁻¹.

**Q.** Which koff does the source give for B5 here?
**A.** Its koff is 3.8e-05 s⁻¹.

**Q.** And the kon?
**A.** The kon was 2.6e+06 M⁻¹ s⁻¹.

**Q.** For B6, which koff is on record?
**A.** The koff was 0.0021 s⁻¹.

**Q.** What about the kon of the same binder?
**A.** The kon was 7.1e+06 M⁻¹ s⁻¹.

**Q.** With B7 as the binder, how does the koff read?
**A.** Its koff is 3.9e-05 s⁻¹.

**Q.** What about the kon of the same binder?
**A.** The kon was 2.8e+06 M⁻¹ s⁻¹.

**Q.** What does the source list for B8?
**A.** koff: 1.1e-05 s⁻¹; kon: 2.4e+06 M⁻¹ s⁻¹

**Q.** Which koff does the source give for B9 here?
**A.** The koff was 5.9e-05 s⁻¹.

**Q.** And the kon?
**A.** Its kon is 2.2e+06 M⁻¹ s⁻¹.

**Q.** What does the source list for B10?
**A.** koff: 2.7e-05 s⁻¹; kon: 2.3e+06 M⁻¹ s⁻¹

**Q.** How did the koff turn out when B11 was run?
**A.** The koff was 1.7e-05 s⁻¹.

**Q.** What about the kon of the same binder?
**A.** The kon was 3.1e+06 M⁻¹ s⁻¹.

target: T1, recombinant human HGF (R&D Systems, …); experiment: cell-based or functional assay; remark: another data set of the same source

**Q.** How did the “EC50, inhibition of HGF-stimulated c-Met phosphorylation in PC-3 cells, Average of Two Trials” value turn out when B1 was run?
**A.** Its value is 0.984 nM.

**Q.** Which “EC50, inhibition of HGF-stimulated c-Met phosphorylation in PC-3 cells, Average of Two Trials” value does the source give for B2 here?
**A.** The value was 1.19 nM.

target: hHGF-Fc C561R (recombinant hHGF protein containing a cysteine to arginine substitution at position 561) (human); experiment: SPR, antibody immobilized, HGF protein injected, 25 C
Procedure: (§3) Each antibody was immobilized on a carboxymethylated dextran CM5 sensor chip (BIAcore, Catalog No. BR-1006-68) by amine coupling (BIAcore, Catalog No. BR-1000-50) using a standard coupling protocol according to manufacturer's instructions.
(§4) Analyses were performed at 25° C. using PBS (GIBCO, Catalog No. 14040-133) containing 0.05% surfactant P20 (BIAcore, Catalog No. R-1000-54), 2 mg/mL BSA (EMD, Catalog No. 2930) and 10 mg/mL CM-Dextran Sodium salt (Fluka, Catalog No. 86524) as running buffer. […] The resulting binding was determined as resonance units (RU) over baseline 30 seconds after the end of injection. […] Non-specific binding was monitored by comparing binding to a control surface where mouse IgG (Rockland, Catalog No. 010-0102) was immobilized using the same amine coupling procedure.

Chain of hHGF-Fc C561R (recombinant hHGF protein containing a cysteine to arginine substitution at position 561) (human) (chain, as listed by the source C561R C561R limits assumed): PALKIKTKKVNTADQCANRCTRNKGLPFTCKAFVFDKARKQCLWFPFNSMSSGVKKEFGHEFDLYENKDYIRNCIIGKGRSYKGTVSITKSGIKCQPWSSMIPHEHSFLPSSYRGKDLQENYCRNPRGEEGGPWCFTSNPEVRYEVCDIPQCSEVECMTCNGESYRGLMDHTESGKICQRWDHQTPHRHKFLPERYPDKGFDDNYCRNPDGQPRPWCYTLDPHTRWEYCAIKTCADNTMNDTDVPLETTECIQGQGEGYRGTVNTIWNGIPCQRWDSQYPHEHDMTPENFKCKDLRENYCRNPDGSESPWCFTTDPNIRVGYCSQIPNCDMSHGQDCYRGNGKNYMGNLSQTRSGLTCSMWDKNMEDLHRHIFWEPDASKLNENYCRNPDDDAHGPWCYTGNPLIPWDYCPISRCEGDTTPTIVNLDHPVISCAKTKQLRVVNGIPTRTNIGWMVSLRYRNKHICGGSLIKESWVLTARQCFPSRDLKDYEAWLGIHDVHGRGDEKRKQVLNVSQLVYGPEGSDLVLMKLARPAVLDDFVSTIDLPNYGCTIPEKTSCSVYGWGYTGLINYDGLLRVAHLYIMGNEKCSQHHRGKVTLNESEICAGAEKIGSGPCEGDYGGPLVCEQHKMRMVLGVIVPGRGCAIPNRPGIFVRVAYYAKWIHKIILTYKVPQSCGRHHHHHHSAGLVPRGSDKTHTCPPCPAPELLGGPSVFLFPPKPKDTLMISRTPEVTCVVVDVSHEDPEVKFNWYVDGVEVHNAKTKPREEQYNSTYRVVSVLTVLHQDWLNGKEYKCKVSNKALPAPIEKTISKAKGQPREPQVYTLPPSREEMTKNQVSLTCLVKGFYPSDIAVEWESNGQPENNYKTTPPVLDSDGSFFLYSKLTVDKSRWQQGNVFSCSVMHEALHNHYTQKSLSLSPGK

**Q.** Does B1 bind?
**A.** Result: binds

**Q.** Does B2 bind?
**A.** Result: binds

target: hHGF-Fc G555E (recombinant hHGF protein containing a glycine to glutamate substitution at position 555) (human); experiment: as above
Procedure: as §3, §4

Chain of hHGF-Fc G555E (recombinant hHGF protein containing a glycine to glutamate substitution at position 555) (human) (chain, as listed by the source G555E G555E limits assumed): as the sequence (chain, as listed by the source C561R C561R limits assumed) above, with G501E, R507C counted along it

**Q.** Does B1 bind?
**A.** Result: binds

**Q.** Does B2 bind?
**A.** Result: binds

target: T2, recombinant mouse HGF (R&D Systems) (mouse, UniProt Q08048 33-728); experiment: as above
T2 construct: Bought protein, construct not described; also called rmHGF (R&D Systems); murine HGF
Procedure: as §3, §4

T2 sequence (Q08048 33-728 limits assumed): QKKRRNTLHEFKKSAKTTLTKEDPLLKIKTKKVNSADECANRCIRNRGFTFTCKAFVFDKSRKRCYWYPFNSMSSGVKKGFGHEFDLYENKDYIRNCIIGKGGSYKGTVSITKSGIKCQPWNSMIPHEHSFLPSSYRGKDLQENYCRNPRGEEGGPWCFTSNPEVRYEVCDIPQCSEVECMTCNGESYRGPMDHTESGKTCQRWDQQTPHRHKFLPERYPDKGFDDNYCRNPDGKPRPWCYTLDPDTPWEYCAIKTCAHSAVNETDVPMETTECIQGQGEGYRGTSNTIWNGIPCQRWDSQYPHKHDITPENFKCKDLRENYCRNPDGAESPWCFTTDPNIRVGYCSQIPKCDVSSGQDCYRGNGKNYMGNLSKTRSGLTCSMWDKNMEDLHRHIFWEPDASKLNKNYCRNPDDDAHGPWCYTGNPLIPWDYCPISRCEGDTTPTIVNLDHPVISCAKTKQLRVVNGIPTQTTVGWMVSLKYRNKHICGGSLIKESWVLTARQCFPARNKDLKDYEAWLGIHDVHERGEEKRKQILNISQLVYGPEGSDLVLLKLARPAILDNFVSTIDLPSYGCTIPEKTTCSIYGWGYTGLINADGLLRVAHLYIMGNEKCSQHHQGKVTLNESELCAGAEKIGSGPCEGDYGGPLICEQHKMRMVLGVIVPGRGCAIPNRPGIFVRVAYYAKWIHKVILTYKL

**Q.** Does B1 bind?
**A.** Result: no binding

**Q.** Does B2 bind?
**A.** Result: binds

target: T1, recombinant human HGF (R&D Systems, …); experiment: competition ELISA (DELFIA): antibody inhibits c-Met binding to plate-coated HGF
Procedure: The plates then were blocked with 200 μL of 5% non-fat dry milk in PBS for 1 hour at room temperature. […] 100 μL of sample per well was transferred to the assay plate and incubated overnight at 4° C.
The resulting plates then were washed three times with PBS-0.1% Tween 20, and incubated for 1 hour at room temperature with Eu-labeled Streptavidin (Wallac, Catalog No. 1244-360) diluted 1:1000 in DELFIA assay buffer (Wallac, Catalog No. 4002-0010). The resulting plates were washed 3 times with DELFIA wash solution (Wallac, Catalog No. 4010-0010) and incubated with 100 μL/well DELFIA enhancement solution (Wallac #4001-0010) for 15 minutes at room temperature with agitation.
The plates were read on Victor³V instrument (Perkin Elmer) using the Europium method.

**Q.** For B1, which IC50 is on record?
**A.** Its IC50 is 4.43 nM.

**Q.** How did the IC50 turn out when B2 was run?
**A.** Its IC50 is 6.57 nM.
